pEC50: −log10 of the molar value.
Key:
[1] = target: ribosome nascent chain complex bearing the 3A7L signal sequence, nascent chain of 85 residues, Cm-labeled (UniProt P0ADZ0); experiment: FRET or BRET
[2] = target: ribosome nascent chain complex bearing the 3A7L signal sequence, nascent chain of 85 residues, Cm-labeled (UniProt P0ADZ0); experiment: other fluorescence titration

Row | fold weaker binding than wt SRP in the closed complex [1] [fold] | fold weaker binding than wt SRP in the early complex [1] [fold] | pEC50 [2] | Substance
1 | 6 | > 300 | – | SRP-FtsY complex formed with mutant SRP19/21E (early complex with GDP, closed complex with GppNHp) (from UniProt P0AGD7;P10121)
2 | – | – | 7.41 | SecYEG translocon, cysteineless, solubilized in 0.02% DDM (from UniProt P0AGA2;P0AG96;P0AG99) (complex)

— PMC4050729
